Target: T1, Soluble CD28-Ig (human, UniProt P10747 19-152, biotin-conjugated (NHS-biotin) in the labelled-ligand FACS assays)
T1 construct: extracellular domain; Bought from R&D Systems; also called sCD28-Ig; CD28-Ig Fc; not shown: Fc portion of human IgG1
Assay: two-colour FACS profile on transfected cells; score of preference for CD28-Ig over CTLA-4-Ig vs WT hB7-1

B1: Round 2 CD28H11-3 (ligand)
chain: ITPKSVTKRVKETVMLSCDYNTSTEELTSLRIYWQKDSKMVLAILPGKVQVWPEYKNRTITDMNDNPRIVILALRLSDSGTYTCVIQKPVLKGAYKLEHLASVRLMIRADFPVPTINDLGNPSPNIRRLICSTSGGFPRPHLYWLENGEELNATNTTLSQDPETKLYMISSELDFNVTNNHSIVCLIKYGELSVSQIFPWSKPKQEPPIDQLPFWVIIPVSGALVLTAAVLYCLACRHVARWKRTRRNEETVGTERLSPIYLGSAQSSG
Binding Score: 1

B2: Round 1 CD28BP-71 (ligand)
chain: ITPKSVTKRVKETVMLSCDYNTSTEELTSLRIYWQKDSKMVLAILPGKVQVWPEYKNRTITDMNDNPRIVILALRLSDSGTYTCVIQKPVLKGAYKLEHLASVRLMIRADFPVPTINDLGNPSPNIRRLICSTSGGFPRPHLYWLENGEELNATNTTLSQDPETKLYMISSELDFNMTSNHSFLCLVKYGDLTVSQTFYWQESKPTPSANQHLTWTIIIPVSAFGISVIIAVILTCLTCRNAAIRRQRRENEVEMQSCSQSP
notes: also called R1clone71; Clone 71
Binding Score: 1

B3: Round 2 CD28B4-3 (ligand)
chain: ITPKSVTKRVKETVMLSCDYNTSTEELTSLRIYWQKDSKMVLAILPGKVQVWPEYKNRTITDMNDNPRIVILALRLSDSGTYTCVIQKPVLKGAYKLEHLTSVRLMIRADFPVPTINDLGNPSPNIRRLICSTSGGFPRPHLYWLENGEELNATNTTLSQDPETKLYMISSELDFNMTSNHSFLCLVKYGDLTVSQTFYWQESKPTPSANQHLTWTIIIPVSAFGISVIIAVILTCLTCRNAAIRRQRRENEVEMQSCSQSP
Binding Score: 1

B4: Round 2 CD28B6-3 (ligand)
chain: ITPKSVTKRVKETVMLSCDYNTSTEELTSLRIYWQKDSKMVLAILPGKVQVWPEYKNRTITDMNDNPRIVILALRLSDSGTYTCVIQKPDLKGAYKLEHLTSVRLMIRADFPVPTINDLGNPSPNIRRLICSTSGGFPRPHLYWLENGEELNATNTTLSQDPETKLYMISSELDFNMTSNHSFLCLVKYGDLTVSQTFYWQESKPTPSANQHLTWTIIIPVSAFGISVIIAVILTCLTCRNAAIRRQRRENEVKMQSCSQSP
Binding Score: 1

B5: Round 2 CD28D5-6 (ligand)
chain: ITPKSVTKRVKETVMLSCDYSTSTEELTSLRIYWQKDSKMVLAILPGKVQVWPEYKNRTITDMNDNPRIVILALRLSDSGTYTCVIQKPVLKGAYKLEHLTSVRLMIRADFPVPTINDLGNPSPNIRRLICSTSGGFPRPHLYWLENGEELNATNTTLSQDPETKLYMISSELDFNMTSNHSFLCLVKYGDLTVSQSFYWQESKPTPSANQHLTWTIIIPVSAFGISVIIAVILTCLTCRNAAIRRQRRENEVEMQSCSQSP
Binding Score: 0

B6: Round 2 CD28E2-5* (ligand)
chain: TTPKSVTKRVKETVMLSCDYNTSTEELTSLRIYWQKDSKMVLAILPGKVQVWPEYKNRTITDMNDNPRIVILALRPSDSGTYTCVIQKPVLKGAYKLEHLASVRLMIRADFPVPTINDLGNPSPNIRRLICSTSGGFPRPHLYWLENGEELNATNTTLSQDPETKLYMISSELDFNMTSNHSFLCLVKYGDLTVSQTFYWQESKPTPSANQHLTWTIIIPVSAFGISVIIAVILTCLTCRNAAIRRQRRENEVEMQSCSQSP
Binding Score: 0

B7: Round 2 CD28E8-6 (ligand)
chain: ITPKSVTKRVKETVMLSCDYNTSTEELTSLRIYWQKDSKMVLAILPGKVQVWPEYKNRTITDMNDNPRIVILALRLSDSGTYTCVIQKPVLKGAYKLEHLTSVRLMIRADFPVPTINDLGNPSPNIRRLICSTSGGFPRPHLYWLENGEELNATNTTVSQDPETKLYMISSELDFNTTSNHSFLCLVKYGDLTVSQTFYWQESKPTPSANQHLTWTIIIPVSAFGISVIIAVILTCLTCRNAAIRRQRRENEVEMQSCSQSP
Binding Score: 0

B8: Round 2 CD28F3-1 (ligand)
chain: ITPKSVTKRVKETVMLSCDYNTSTEELTSLRIYWQKDSKMVLAILPGKVQVWPEYKNRTITDMNDNPRIVILALRLSDSGTYTCVIQKPDLKGAYKLEHLTSVRLMIRADFPVPTINDLGNPSPNIRRLICSTSGGFPRPHLYWLENGKELNATNTTLSQDPETKLYMISSELDFNMTSNHSFLCLVKYGDLTVSQTFYWQESKPTPSANQHLTWTIIIPVSAFGISVIIAVILTCLTCRNAAIRRQRRENEVEMQSCSQSP
Binding Score: 0

From US20050154189A1 (MAXYGEN, published 2005)
